Data: PMC13199644, “Optimized Quantitative Bacterial Two-Hybrid (qB2H) for Protein–Protein Interaction Assessment” (Computational and Structural Biotechnology Journal, 2026)

Tested on: Spo22p
Experiment: qB2H v3 fluorescence, Spo22p vs ECM11
Format: cell-based, Saccharomyces cerevisiae
Details: Acella, qB2H v3, cI-Spo22p 786-886, IPTG(200µM) + ATC (200ng/mL)
Method: Precultures of untransformed (for intrinsic fluorescence evaluation) and transformed SB39 cells were diluted (3 μl into 300 μl of fresh medium) in 2-ml microtubes and grown in ThermoMixer C (Eppendorf; 37 °C at 900 rpm) for 2 h. Cultures with an OD600 of approximately 0.5 were then mixed with 100 μl of the same medium containing 4× inducer concentration. […] The induced cultures were grown overnight at 18 °C, diluted (1 μl) in freshly filtered (0.22 μm) phosphate-buffered saline buffer (1 ml per OD unit), and analyzed using guava easyCyte HT (488-nm blue laser). The gating for event analysis was set to minimize background noise (fewer than 100 gated events per 10 μl of sterile phosphate-buffered saline). Ten thousand events were collected per culture, and the MFI was recorded. To allow comparison across independent experiments, SB39 cells cotransformed with VN519 (pBRα-rpoA-ip3_mut3A) and VN550 (pAC-cI_E34P-ASF1A_Term_f1-pOL2-62_L-eGFP-KanR) or VN517 (pBRα-rpoA-ip3) and VN550 were included as internal controls. […]
MFI(x) represents the MFI of a given condition or culture. MFI(low) corresponds to the fluorescence produced by SB39 cells cotransformed with VN519 and VN550, indicating no detectable interaction (Kd > 100,000 nM). […]
Interactions involving distinct protein domains and folding variants were assessed using qB2H systems v1, v2, and v3. […]

B1: ECM11: Q04110 1-302, Saccharomyces cerevisiae (protein, UniProt Q04110 1-302, looked up)
Protein ECM11: MTVIKTEPTTEVTLYSPPSKESLSKDDAHRKKQNNKPPSSINSRSGPNKHKLAAKAPEKKINNTDKQDLSAFLLNPSLIVKPSESKKKENIVAYNDTPGIKTEHTAFQPLTPISKKRALKEKAASEKCDSFDLSRDEKPYIQKKSKTLSSVTEINSSEYKLSLNGENTSSPAKEKSQEPIENPGSYQKTRNYLFEKPDPLDTCLQDYSSMLPSNVAEEDQEYFISVADSTLEEWTNKGQEIIDQQFQLYQEIIKKRIELSYKFKGIISVINDRADALEEQGQQLEGKIKKVKTLANEILNII
  Norm. MFI: 7.70%
